Test results reported in US20240376185A1 (SMIVET B V, published 2024).

T1: recombinant tetanus toxin fragment C (rTTC) (Clostridium tetani, UniProt P04958 865-1315)
T1 sequence: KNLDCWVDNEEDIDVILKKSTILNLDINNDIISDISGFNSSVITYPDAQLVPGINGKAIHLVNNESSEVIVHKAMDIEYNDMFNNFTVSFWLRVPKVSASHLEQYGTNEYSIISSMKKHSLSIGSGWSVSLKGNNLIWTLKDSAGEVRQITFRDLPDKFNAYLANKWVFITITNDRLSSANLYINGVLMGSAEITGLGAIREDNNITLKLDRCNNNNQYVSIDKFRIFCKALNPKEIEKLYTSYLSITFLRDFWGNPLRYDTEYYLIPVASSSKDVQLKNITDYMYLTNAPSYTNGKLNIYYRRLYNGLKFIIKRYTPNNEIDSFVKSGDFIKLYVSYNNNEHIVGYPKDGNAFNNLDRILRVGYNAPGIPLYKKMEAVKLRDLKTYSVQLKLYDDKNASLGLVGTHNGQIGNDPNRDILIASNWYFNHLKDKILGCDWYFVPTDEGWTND

B1: SVA16 (VHH, not shown: large carriers)
VHH: QVQLQESGGGVVQAGGSLRLSCAASGRTVSSSAMGWFRLAPGKEREFVVGISRSGGSIFYADSVKGRFTISRKNAKNTVDLQMNSLKPEDTAVYYCAAGYRPGYGDYGRVFYREDEYDDWGQGTQVTVSS
B2: SVT15L-3FW4M (VHH)
VHH: QVQLQESGGGLVQTGGSLRLSCRASGRAFANYHFGWFRQAPGKDREFVASISWKGGSTYYANFALGRFTSSVDRAESSVYLQMSGLTPEDTATYYCAAHDGGDWNYHTGMDYWGQGTQVTVSS
B3: SVA02 (VHH, not shown: large carriers)
VHH: QVQLQQSGGGLVQAGGSLRLSCAASGRFFSRQVMGWFRQAPGKDREFVGVISWDNGVTFYSDSVKGRFTMSREIAKKTVHLQMNSLKPEDTAVYYCAAGNALHSRYYSPSKYDYWGPGTQVTVSS
B4: SVT16L (VHH)
VHH: QVQLQESGGGSVQAGDSLRLSCAASGRTISNYAMGWFRQAPGKQREFVAAISRSDNTYYTDSVKGRFTISRDNAKNTLYLQMNSLKPEETAVYYCAADPNLMYESKWKYRALEAWGQGTLVTVSS
B5: SVT16-L123Q-GS2-SVA12M2-H6 (bispecific antibody)
chain: QVQLQESGGGSVQAGDSLRLSCAASGRTISNYAMGWFRQAPGKQREFVAAISRSDNTYYTDSVKGRFTISRDNAKNTLYLQMNSLKPEETAVYYCAADPNLMYESKWKYRALEAWGQGTQVTVSSGGGGSGGGSEVQLVESGGGLVQAGGSLRLSCAASGRTFSYYPMAWFRQAPGQEREFVAAIIGADTTYYADSLKGRFTISRDNAKNMVYLQMNSLKPEDTAVYYCAARNTYWSDVYYREGQYTNWGQGTQVTVSSHHHHHH
B6: SVA06 (VHH)
VHH: QVQLQESGGRLVQAEDSLRLSCAASGRTFVSYDMGWFRQAPGKEREFVAAINWRGYTTDYVDSVKGRFFISRDIAKSTVYLQMNNLKPEDTAVYYCAARQMSGSSRYSPPGRVGYDFWGQGTQVTVSS

Columns and labels:
human serum albumin [1] = target: T2, human serum albumin (human, UniProt P02768 25-609); assay: ELISA, E. coli supernatant
T2 construct: mature; also called human Alb

human serum albumin [2] = target: T2, human serum albumin; assay: ELISA, coated albumin, E. coli supernatant
dog serum albumin = target: T3, dog serum albumin (dog, UniProt P49822 25-608); assay: ELISA, coated albumin, E. coli supernatant
T3 construct: mature; also called dog Alb; Canine albumin

horse serum albumin = target: T4, horse serum albumin (horse, UniProt P35747 25-607); assay: ELISA, coated albumin, E. coli supernatant
T4 construct: mature; also called horse Alb; Equine albumin

[3] = target: T5, tetanus neurotoxin (TeNT), authentic tetanus holotoxin (Clostridium tetani, UniProt P04958 2-1315); assay: competition ELISA on TeNT, binder biotinylated; competitor SVT34L
[4] = target: T5, tetanus neurotoxin (TeNT), authentic …; assay: competition ELISA on TeNT, binder biotinylated; competitor SVT13L
[5] = target: T5, tetanus neurotoxin (TeNT), authentic …; assay: ELISA, directly coated TeNT, unlabelled binder
[6] = target: T5, tetanus neurotoxin (TeNT), authentic …; assay: competition ELISA on TeNT, binder biotinylated; competitor SVT06L
[7] = target: T5, tetanus neurotoxin (TeNT), authentic …; assay: ELISA, TeNT captured with cAb-TT2, unlabelled binder
[8] = target: T5, tetanus neurotoxin (TeNT), authentic …; assay: competition ELISA on TeNT, binder biotinylated; competitor SVT15L-3FW4M
[9] = target: T5, tetanus neurotoxin (TeNT), authentic …; assay: competition ELISA on TeNT, binder biotinylated; competitor SVT08L
[10] = target: T5, tetanus neurotoxin (TeNT), authentic …; assay: competition ELISA on TeNT, binder biotinylated; competitor mAb 6E7
[11] = target: T5, tetanus neurotoxin (TeNT), authentic …; assay: ELISA, TeNT captured with coated mAb 6E7
[12] = target: T5, tetanus neurotoxin (TeNT), authentic …; assay: ELISA, directly coated TeNT, biotinylated binder
[13] = target: T5, tetanus neurotoxin (TeNT), authentic …; assay: competition ELISA on TeNT, binder biotinylated; competitor SVT16L
[14] = target: T5, tetanus neurotoxin (TeNT), authentic …; assay: competition ELISA on TeNT, binder biotinylated; competitor SVT03L
[15] = target: T5, tetanus neurotoxin (TeNT), authentic …; assay: GT1b-TeNT inhibition ELISA, unlabelled binder
[16] = target: T5, tetanus neurotoxin (TeNT), authentic …; assay: competition ELISA on TeNT, binder biotinylated; competitor mAb 14F5
[17] = target: T5, tetanus neurotoxin (TeNT), authentic …; assay: competition ELISA on TeNT, binder biotinylated; competitor mAb 11n185
[18] = target: T1, recombinant tetanus toxin fragment C …; assay: ELISA, directly coated rTTC, unlabelled binder
[19] = target: T5, tetanus neurotoxin (TeNT), authentic …; assay: GT1b-TeNT inhibition ELISA, EC at A450 0.59
[20] = target: T5, tetanus neurotoxin (TeNT), authentic …; assay: ELISA, TeNT captured with cAb-TT2, biotinylated binder
[21] = target: T1, recombinant tetanus toxin fragment C …; assay: ELISA, rTTC captured with coated mAb 6E7
[22] = target: T5, tetanus neurotoxin (TeNT), authentic …; assay: ELISA, directly coated TeNT
[23] = target: T5, tetanus neurotoxin (TeNT), authentic …; assay: competition ELISA on TeNT, binder biotinylated; competitor SVT22L
[24] = target: T5, tetanus neurotoxin (TeNT), authentic …; assay: competition ELISA on TeNT, binder biotinylated; competitor SVT02L
[25] = target: T5, tetanus neurotoxin (TeNT), authentic …; assay: competition ELISA on TeNT, binder biotinylated; competitor mAb 6F57
[26] = target: T5, tetanus neurotoxin (TeNT), authentic …; assay: competition ELISA on TeNT, binder biotinylated; competitor SVT15L
dog albumin (dog Alb) [27] = target: T6, dog albumin (dog Alb) (dog, UniProt P49822 25-608); assay: ELISA: coated dog Alb, anti-his6 PO
T6 construct: also called Canine albumin

dog albumin (dog Alb) [28] = target: T6, dog albumin (dog Alb); assay: ELISA: coated dog Alb, anti-his6 PO; remark: listed apart in the source

| Binder | binding result (human serum albumin [1]) | absorbance at 450 nm (human serum albumin [2]) | absorbance at 450 nm (dog serum albumin) | absorbance at 450 nm (horse serum albumin) | % inhibition of binding [3] | % inhibition of binding [4] | EC resulting in A450 0.2 [5] | maximal absorbance at 450 nm [5] | % inhibition of binding [6] | EC resulting in A450 0.15 [7] | maximal absorbance at 450 nm [7] | % inhibition of binding [8] | % inhibition of binding [9] | % inhibition of binding [10] | absorbance at 450 nm [11] | EC resulting in A450 0.4 [12] | maximal absorbance at 450 nm [12] | % inhibition of binding [13] | % inhibition of binding [14] | minimal absorbance at 450 nm [15] | also measured |
| --- | --- | --- | --- | --- | --- | --- | --- | --- | --- | --- | --- | --- | --- | --- | --- | --- | --- | --- | --- | --- | --- |
| B1 | no binding | 0.083 A450 | 2.02 A450 | 2.11 A450 | – | – | – | – | – | – | – | – | – | – | – | – | – | – | – | – | – |
| B2 | – | – | – | – | 3% | -5% | 3.8 ng/mL | 0.817 | 7% | 9.8 ng/mL | 0.195 | 95% | 6% | 6% | 0.236 | 2 ng/mL | 1.37 | 3% | -8% | 0.127 | % inhibition of binding [16]: 2%; % inhibition of binding [17]: -1%; maximal absorbance at 450 nm [18]: 0.206; concentration giving A450 of 0.59 [19]: 0.039 µg/mL; EC resulting in A450 0.2 [20]: 3.5 ng/mL; maximal absorbance at 450 nm [20]: 0.697; absorbance at 450 nm [21]: 0.528; absorbance at 450 nm [22]: 0.477; % inhibition of binding [23]: 4%; % inhibition of binding [24]: 10%; % inhibition of binding [25]: 6%; % inhibition of binding [26]: 96% |
| B3 | no binding | 0.065 A450 | 1.87 A450 | 1.9 A450 | – | – | – | – | – | – | – | – | – | – | – | – | – | – | – | – | – |
| B4 | – | – | – | – | 95% | 96% | 1.1 ng/mL | 1.57 | -8% | 3.2 ng/mL | 0.363 | 17% | 2% | 6% | 1.13 | 0.52 ng/mL | 1.42 | 95% | -1% | 0.129 | % inhibition of binding [16]: 6%; % inhibition of binding [17]: -2%; maximal absorbance at 450 nm [18]: 1.01; concentration giving A450 of 0.59 [19]: 0.047 µg/mL; EC resulting in A450 0.2 [20]: 1.6 ng/mL; maximal absorbance at 450 nm [20]: 0.971; absorbance at 450 nm [21]: 1.38; absorbance at 450 nm [22]: 1.27; % inhibition of binding [23]: 96%; % inhibition of binding [24]: 13%; % inhibition of binding [25]: 2%; % inhibition of binding [26]: 12% |
| B5 | – | – | – | – | – | – | – | – | – | – | – | – | – | – | – | – | – | – | – | – | maximal absorbance value (dog albumin (dog Alb) [27]): 1.78 A450; Effective SDA Concentration at A450 0.2 (dog albumin (dog Alb) [28]): 34 ng/mL |
| B6 | no binding | 0.067 A450 | 1.99 A450 | 1.66 A450 | – | – | – | – | – | – | – | – | – | – | – | – | – | – | – | – | – |
